Assay results taken from PMC2358973, “A Cysteine Protease Is Critical for Babesia spp. Transmission in Haemaphysalis Ticks” (PLoS Pathogens, 2008).

Tests used:
[1] = system: T1, Cc1cc(=O)oc2cc(NC(=O)[C@H](CCCNC(=N)N)NC(=O)[C@H](CCCNC(=N)N)NC(=O)OCc3ccccc3)ccc12; test: fluorogenic hydrolysis assay, Michaelis-Menten fit; format: biochemical, Haemaphysalis longicornis; conditions: 25 mM citric acid/sodium phosphate, pH 6.0, 5 mM DTT
T1 construct: partial coding region (pPICZC) expressed in Pichia pastoris GS115, HiTrap chelating column purified; precursor 341 residues with 17-residue signal peptide
Source text: (§1) fluorogenic hydrolysis assay, Michaelis-Menten fit on longipain

[2] = system: T2, Cc1cc(=O)oc2cc(NC(=O)[C@H](CCCNC(=N)N)NC(=O)[C@H](Cc3ccccc3)NC(=O)OCc3ccccc3)ccc12; test: fluorogenic hydrolysis assay, Michaelis-Menten fit; format: biochemical, Haemaphysalis longicornis; conditions: 25 mM citric acid/sodium phosphate, pH 6.0, 5 mM DTT
T2 construct: partial coding region (pPICZC) expressed in Pichia pastoris GS115, HiTrap chelating column purified; precursor 341 residues with 17-residue signal peptide
Source text: as §1

Question: longipain (Haemaphysalis longicornis) was tested. Which Km [1] did it give?
Answer: 16.0 ± 0.2 µM

Question: What about the kcat [1] of the same substance?
Answer: 800 s⁻¹

Question: What about the kcat/Km [1] of the same substance?
Answer: 5e+07 M⁻¹ s⁻¹

Question: What about the Km [2] of the same substance?
Answer: 12.1 ± 0.08 µM

Question: What about the kcat [2] of the same substance?
Answer: 550 s⁻¹

Question: What about the kcat/Km [2] of the same substance?
Answer: 4.5e+07 M⁻¹ s⁻¹
